Kd and Ka data for six molecules are collected here from publication PMC11116813 (2024).

Common to all, as to test: ITC
In general terms: In ITC the heat of successive injections is recorded.

Assay [1] addresses T1, full-length human HP1α WT (hHP1α), recombinant (human, UniProt P45973 1-191).
In assay [2] the target is T1, full-length human HP1α WT (hHP1α), …. The source holds these as a separate data set.
Assay [3] addresses human HP1α chromoshadow domain (CSD), recombinant (human).
Assay [4] shares this target. The source holds these as a separate data set.

T1 sequence (P45973 whole entry): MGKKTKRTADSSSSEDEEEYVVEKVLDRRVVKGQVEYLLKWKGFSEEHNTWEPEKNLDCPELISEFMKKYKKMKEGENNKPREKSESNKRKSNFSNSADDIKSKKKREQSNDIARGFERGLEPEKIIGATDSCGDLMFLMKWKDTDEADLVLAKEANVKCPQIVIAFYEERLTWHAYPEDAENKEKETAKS
Sequence of human HP1α chromoshadow domain (CSD), recombinant (human) (chain, as listed by the source): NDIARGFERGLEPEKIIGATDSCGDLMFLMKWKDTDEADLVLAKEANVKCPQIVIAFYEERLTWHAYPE

B1: human INCENP (121-210) -6His, GST removed (Fig. 2D) (domain or fragment)
chain: LRRVTRAAAAAAAATMALAAPSSPTPESPTMLTKKPEDNHTQCQLVPVVEIGISERQNAEQHVTQLMSTEPLPRTLSPTPASATAPTSQG
As to B1, in assay [1], the Kd (usually the equilibrium constant for the complex coming apart) came to 14 nM. For the same molecule, in assay [2], the Ka turned out to be 7.25e+07 M⁻¹.
For the molecule YHTQCQLVPVVEIGISERQNAEQHVTQLMSTEPL (domain or fragment) [human INCENP (160-192), untagged version (Tyr-added), GST removed], the Kd in assay [3] was 39 nM. Moreover, the Ka in assay [4] was 2.57e+07 M⁻¹.

B2: human INCENP (160-210) -6His, GST removed (domain or fragment)
chain: HTQCQLVPVVEIGISERQNAEQHVTQLMSTEPLPRTLSPTPASATAPTSQG
As for B2, the Kd came out at 25 nM in assay [1] and 39 nM in assay [3]. For the same molecule, the Ka in assay [2] amounted to 3.9e+07 M⁻¹; in assay [4], 2.56e+07 M⁻¹.

B3: human INCENP fragment (121-210) WT used in Fig. 6A (domain or fragment)
chain: YLRRVTRAAAAAAAATMALAAPSSPTPESPTMLTKKPEDNHTQCQLVPVVEIGISERQNAEQHVTQLMSTEPLPRTLSPTPASATAPTSQG
With B3, the equilibrium dissociation constant (Kd) in assay [1] came out at 55 nM. The Ka in assay [2] was 1.82e+07 M⁻¹.

B4: human Sgo1 fragment (405-494), Tyr-added, GST removed (domain or fragment)
chain: YAKRALKYTDEKETEGSKPTKTPTTTPPETQQSPHLSLKDITNVSLYPVVKIRRLSLSPKKNKASPAVALPKRRCTASVNYKEPTLASKLR
For B4, in assay [2], the Ka amounted to 242000 M⁻¹.

B5: human INCENP (121-270) WT -6His, GST removed (domain or fragment)
chain: LRRVTRAAAAAAAATMALAAPSSPTPESPTMLTKKPEDNHTQCQLVPVVEIGISERQNAEQHVTQLMSTEPLPRTLSPTPASATAPTSQGIPTSDEESTPKKSKARILESITVSSLMATPQDPKGQGVGTGRSASKLRIAQVSPGPRDSP
Take B5: the Ka in assay [2] is 2.35e+07 M⁻¹.
